In patent US20240425588A1 (APEXIMMUNE THERAPEUTICS, published 2024):

T1: human TIGIT expressed on the cell surface of Jurkat cells (human, UniProt Q495A1 22-244)
T1 construct: also called Jurkat-hTIGIT; cell surface TIGIT
T1 sequence: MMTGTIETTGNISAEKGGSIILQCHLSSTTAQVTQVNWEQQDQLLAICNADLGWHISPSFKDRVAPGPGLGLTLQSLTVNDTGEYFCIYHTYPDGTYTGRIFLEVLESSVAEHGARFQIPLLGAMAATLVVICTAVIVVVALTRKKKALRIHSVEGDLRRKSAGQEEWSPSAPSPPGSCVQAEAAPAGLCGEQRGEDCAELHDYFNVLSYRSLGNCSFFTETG

B1: hu32B10 (45.32B10.A4) (antibody, V domains shown)
VH: EVQLLESGGGLVQPGGSLRLSCAASGFTFSNYVMSWVRQAPGKGLEWVSTITSGGTYTYYPDSVKGRFTISRDNSKNTLYLQMNSLRAEDTAVYYCTRWLLSLYAMDYWGQGTTVTVSS
VL: DIQMTQSPSSLSASVGDRVTITCRASQDISNFLNWYQQKPGKAVKLLLYYTSRLHSGVPSRFSGSGSGTDYTLTISSLQPEDFATYFCQQGKTYPYTFGGGTKVEIK
notes: Humanized antibody; also called humanized 45.32B10.A4
B2: 45.32B10.A4 (antibody, V domains shown)
VH: EVQLVESGGVLVKPGGSLKLSCAASGFTFSNYVMSWVRQTPEKRLEWVATITSGGTYTYYPDSVKGRFTISRDNAKNILYLQMSSLRSEDTALYYCTRWLLSLYAMDYWGQGTSVTVSS
VL: DIQMTQTTSSLSASLGDRVTITCRASQDISNFLNWYQQKPDGTVKLLIYYTSRLHSGVPSRFSGSGSGTDYSLTISNLEQEDIATYFCQQGKTYPYTFGGGTKVEIK
notes: Mouse hybridoma antibody, tested as supernatant or protein G purified
B3: 45.56F7.A1 (antibody, V domains shown)
VH: EVQLVESGGALVKPGGSLKLSCAASGFTFSNYAMSWVRQTPEKRLEWVATISSGGSYTYYPDSVKGRFTISRDNAKNTLYLQMSSLRSEDTALYYCARWLLSLYAMDYWGQGTSVTVSS
VL: DFQMTQTTSSLSASLGDRVTISCRSSQDISNYLNWYQQKPDGTVKLLIYRTSRLHSGVPSRFSGSGSGTDYSLTISNLEREDIATYFCQQGKTPPYTFGGGTKLEIK
notes: as for B2
B4: 45.32A8.G6 (antibody, V domains shown)
VH: QVQLKESGPGLVAPSHSLSITCTVSGFSLTNYNINWIRQPPGKGLEWLGIIWTGGGTNYNSAFMSTLSINKDNSKSQVFLKMNRMQTDDTTIYYCVRETYFNNYGFYFDYWGQSTTLTVSS
VL: EIVLTQSPTTMAASPGEKITITCSASSSISSNYLHWYQQKPGFSPKLLIYRTSNLASGVPARFSGSGSGTSYSLTIGTMEAEDVATYYCQQGSSIPRTFGGGTKLEIK
notes: as for B2
B5: 45.50C2.A6 (antibody, V domains shown)
VH: QVQLKESGPGLVAPSQSLSITCTVSGFSLTNYNINWIRQPPGKGLEWLGVIWTGGGTNYNSAFMSRLSISKDNSKSQVFLKMNRLQTDDTAIYYCVREAYFSNYGFYFDYWGQGTTLTVSS
VL: EIVLTQSPTTMAASPGEKITITCSASSSISSNYLHWYQQKPGFSPKLLIYRTSNLASGVPARFSGSGSGTSYSLTIGTMEAEDVATYYCQQGSSIPRTFGGGTKLEIK
notes: as for B2
B6: 45.3D7.F7 (antibody, V domains shown)
VH: QVQLQQSGPELVKPGASVKISCKASGYGFSGYWMNWVKQGPGKGLEWIGRIFPGDGDTDYNGKLKDKATLTAYKSSSTAYLQLSSLTSEDSAVYFCARWLGGFTSWGQGTLVTVSA
VL: QIVLSQSPAILSASPGEKVTMTCRASASVSYMHWYQQKPGSSPKPWIYATSNLASGVPARFSGSGSGTSYSLTISRVEAEDAATYYCQQWSSDPPTFGAGTKLELK
notes: as for B2
B7: 45.75D4.D3.D9 (antibody, V domains shown)
VH: EVQLQQSGPELVKPGASMKMSCKASGYKFTSYVMHWVKQKPGQGLEWIGYIDPYNDGSKYNEKFKGKATLTSDKSSSIAYMELSSLTSEDSAVFYCARGGSRGWYFDVWGAGTTVTVSS
VL: DIQMTQSPASLSASVGETVTFTCRTNENIYSYLTWYQQKQGKSPQVLVYNAKTLAEGVPSRFSGSGSGTQFSLKINSLQPEDFGSYFCQHHFGNPLTFGAGTKLELK
notes: as for B2
B8: 45.62B12.G5 (antibody, V domains shown)
VH: DVQLQESGPGLVKPSQSLSLTCTVTGYSITSAYDWHWIRHFPGNILEWMGYIRNSGSTNYNPLLKSRISITHDTSQNHFSLKLNSVTTEDTATYYCARGLFWYFDVWGAGTTVTVSS
VL: DIQMTQSPASLSASVGETVTITCRASENIYNYLTWYQQKQGKSPQLLVYNAKTLAEGVPSRFSGSGSGTQFSLKINSLQPEDFGSYYCQHHYGNPLTFGAGTKLELK
notes: as for B2
B9: 45.86C5.C3 (antibody, V domains shown)
VH: DVQLQESGPGLVKPSQSLSLTCTVTGYSITSGYDWHWIRHFPGNILEWMGYISDSGNTIYSPSLKSRISITHDTSKNHFFLKLNSVTSEDTATYYCARGSFWYFDVWGAGTTVTVSS
VL: DIQMTQSPASLSASVGETVTITCRVSENIYSYLAWYQQKQGKSPQLLVYNTKTLAEGVPSRFSGSGSGTQFSLKINSLQPEDFGSYYCQHHYGNPLTFGAGTKLELK
notes: as for B2
B10: 45.87B8.H2.H5 (antibody, V domains shown)
VH: DVQLQESGPGLVKPSQSLSLTCTVTGYSITSAYDWHWIRLFPGHILEWMGYISYSGNTIYNPSLKSRISITHDTSKNHFFLKLNSVTTEDTATYYCARGSFWYFDVWGAGTTVTVSS
VL: DIQMTQSPASLSASVGETVTITCRVSEHIYNYLAWYQQKQGKSPQLLVYNAKTLAEGVPSRFSGSGSGTQFSLKINSLQPEDFGTYYCQHNYGNPLTFGAGTKVELK
notes: as for B2

target: T1, human TIGIT expressed on the cell …; test: flow cytometry on Jurkat-hTIGIT cells
Protocol: Supernatants from ELISA-positive clones or purified antibodies were further tested for their ability to bind to human TIGIT or rhesus TIGIT expressed on the cell surface of Jurkat cells (Jurkat-hTIGIT or Jurkat-rhesTIGIT) by flow cytometry. Jurkat-hTIGIT or Jurkat-rhesTIGIT cells were harvested and 1×10⁵ cells per well plated in 96-well U-bottom plates and the supernatant removed. 50 μl of hybridoma supernatant or purified antibody at the specified dilution or concentration was added to each well and incubated at 4° C. for 30 minutes. Assay plates were washed 2 times with PBS and antibody binding detected using a PE-labeled goat anti-mouse antibody (Biolegend) at 1:400 dilution in PBS for 30 minutes at 4° C. Plates were washed 2 times and analyzed on a BD LSRFortessa X-20 flow cytometer (Becton Dickinson).

Binding result, binds:
B1
B2
B3
B4
B5
B6
B7
B8
B9
B10
